These results are taken from patent US20100035825A1.

For test [1], the target named is purified recombinant procaspase 1 (human, Alexis Biochemicals) (human) (UniProt P29466). Kind of test: co-immunoprecipitation of purified recombinant proteins (C/EBPβ peptides 200 µM), immunoblot, densitometry; reference C/EBPβ 216-253-HA-Ala217. (In general: A western blot detects proteins with antibodies after separation by electrophoresis.)
Test [2] has as its target purified recombinant procaspase 8 (human, Alexis Biochemicals) (human) (UniProt Q14790). The test is described as above.
In test [3] the target is purified recombinant procaspase 1 (human, Alexis Biochemicals) (human) (UniProt P29466). Kind of test: co-immunoprecipitation of purified recombinant proteins (C/EBPβ peptides 200 µM), immunoblot, densitometry; reference C/EBPβ-HA-Ala217.

purified recombinant procaspase 8 (human, Alexis Biochemicals) (human), sequence (Q14790 217-479 limits assumed): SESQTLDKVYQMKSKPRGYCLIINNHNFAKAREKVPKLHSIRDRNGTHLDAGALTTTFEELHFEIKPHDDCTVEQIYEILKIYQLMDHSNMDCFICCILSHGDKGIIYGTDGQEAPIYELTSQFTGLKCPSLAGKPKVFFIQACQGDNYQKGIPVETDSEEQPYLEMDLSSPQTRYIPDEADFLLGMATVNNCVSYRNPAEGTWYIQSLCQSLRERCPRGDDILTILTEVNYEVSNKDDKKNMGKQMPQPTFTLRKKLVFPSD

In the case of C/EBPβ 216-253-HA-Glu^217, the fold more co-immunoprecipitated than the Ala^217 peptides (densitometry) in test [1] is 7 fold; in test [2] it was 12 fold. With “C/EBPβ-HA-Glu^217 (from UniProt P28033 1-296)”, the fold more co-immunoprecipitated than the Ala^217 peptides (densitometry) in test [3] came out at 7 fold.
